Experimental findings from patent publication US6905817B1, “Ret-independent signaling pathway for GDNF” (Licestia Ltd., priority 1998, dated 2005) are described below.

The test system of one test is Ret^−/− DRG neurons. The test is described as follows: GDNF-evoked [Ca^2+]i changes, confocal microscopy, Ret^−/− DRG neurons. The format is cell-based, mouse. As to conditions: for GDNF-evoked [Ca^2+]i elevation in heparin injected neurons: 6kD heparin injected, versus solvent/saline injected control neurons. The procedure:
(§1) DRG from embryonic day 18 (E18) mice were treated with trypsin (Worthington), non-neuronal cells removed by preplating, and about 95% pure neurons cultured on poly-ornithine-laminin-coated glass coverslips in Ham's F14 medium (Imperial Laboratories) with serum substitute containing NGF, BDNF and NT-3 (all from PeproTech, 2 ng/ml if each) for at least 1 day before measurement. Neurotrophins were extensively washed out before GDNF application. GDNF was from PeproTech and donated by Cephalon, Inc. Ret-deficient mice (Schuchardt et al., 1994) were identified from heterozygote matings by the absence of kidneys and PCR-based genotyping. GFRα2-deficient mice were obtained from homozygote matings (Rossi et al., 1999).
(§2) [Ca^2+]i was measured using a Bio-Rad MRC-1024 confocal microscope equipped with an argon-krypton laser. The cells were loaded with 10 μM Calcium Green-1AM (Molecular Probes), a membrane permeable Ca^2+ dye, by 30 min incubation in serum free cell-culture media at 37 ° C. and 5 % CO2. After loading, the neurons were kept at room temperature in Dulbecco's PBS solution contained 20 mM HEPES (pH=7.4) for at least 20 min prior to the experiments. All compounds were applied to the bath by a peristaltic pump. 6 kD Heparin (Sigma) and Alexa 568 nm fluorescent dye (Molecular Probes) were loaded into the cells using Molecular Probes' pinocytotic influx loading reagent basically according to the manufacturer instructions. […] Cell injection was performed using Eppendorf microinjection system. The average intensity of fluorescence in the predefined ROI (Region Of Interest) was measured on-line using TimeCourse software from BioRad. The calibration of fluorescence traces was performed in vitro using Fmax and Fmin values obtained with the calcium calibration buffer kit (Molecular Probes). Because the calibration solutions may not reflect the intracellular environment, the experimental data are presented as delta [Ca^2+]i calculated using Kd=190 nM for Calcium Green-1.

Test [1] deals with wild type mouse DRG neurons. The test is described as follows: GDNF-evoked [Ca^2+]i changes, confocal microscopy with Calcium Green-1AM, wild type DRG neurons. The class given is cell-based. Conditions: for change in [Ca^2+]i: 100 ng/ml, heat-inactivated at 98° C. for 15 min. The procedure: as §1, §2
A further test concerns GFRα2^−/− DRG neurons. Nature of the test: GDNF-evoked [Ca^2+]i changes, confocal microscopy, GFRα2^−/− DRG neurons. The format is cell-based, mouse. Conditions: pre-treatment 10 μM U-73122. The procedure:
as §1, §2
Transgenic GFRα2 knock-out mice were produced in our laboratory. […]

Test [2] concerns the target T1, GFRα1 of the Ret-negative human SHEP neuroblastoma cell line (human) (UniProt P56159).
T1 sequence (GPI anchor, looked up): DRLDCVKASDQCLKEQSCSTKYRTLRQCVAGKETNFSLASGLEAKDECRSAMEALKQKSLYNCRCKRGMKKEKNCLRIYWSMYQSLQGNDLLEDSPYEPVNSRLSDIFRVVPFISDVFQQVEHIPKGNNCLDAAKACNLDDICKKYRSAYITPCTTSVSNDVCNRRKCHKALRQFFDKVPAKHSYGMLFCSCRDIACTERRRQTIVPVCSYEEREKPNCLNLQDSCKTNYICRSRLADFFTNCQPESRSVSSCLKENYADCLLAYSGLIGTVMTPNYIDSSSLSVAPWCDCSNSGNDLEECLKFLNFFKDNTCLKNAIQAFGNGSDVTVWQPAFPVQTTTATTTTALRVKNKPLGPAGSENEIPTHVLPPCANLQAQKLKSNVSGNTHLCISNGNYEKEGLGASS
Nature of the test: anti-GFRα1 immunoprecipitate from the Triton X-100 insoluble fraction of SHEP cells, Western blot with pan-Src antibodies; lane 1 min of 100 ng/ml GDNF. (In general: A western blot detects proteins with antibodies after separation by electrophoresis.)

For test [3], the target named is T1, GFRα1 of the Ret-negative human SHEP neuroblastoma cell line (human). Nature of the test: anti-GFRα1 immunoprecipitate from the Triton X-100 insoluble fraction of SHEP cells, Western blot with pan-Src antibodies; lane 7 min of 100 ng/ml GDNF.
The target is the same in test [4]. Nature of the test: anti-GFRα1 immunoprecipitate from the Triton X-100 insoluble fraction of SHEP cells, Western blot with pan-Src antibodies; lane 30 sec of 100 ng/ml GDNF.
For test [5] the target is unchanged. Nature of the test: anti-GFRα1 immunoprecipitate from the Triton X-100 insoluble fraction of SHEP cells, Western blot with pan-Src antibodies; lane 0 min GDNF (reference lane).
Test [6] shares this target.
For test [7] the target is unchanged. The test is described as follows: cell-based or functional assay.
Test [8] concerns the target T2, GPI-anchored GDNF family receptor α1 (GFRα1) of mouse E18 DRG neurons (mouse) (UniProt P97785).
T2 sequence (GPI anchor, looked up): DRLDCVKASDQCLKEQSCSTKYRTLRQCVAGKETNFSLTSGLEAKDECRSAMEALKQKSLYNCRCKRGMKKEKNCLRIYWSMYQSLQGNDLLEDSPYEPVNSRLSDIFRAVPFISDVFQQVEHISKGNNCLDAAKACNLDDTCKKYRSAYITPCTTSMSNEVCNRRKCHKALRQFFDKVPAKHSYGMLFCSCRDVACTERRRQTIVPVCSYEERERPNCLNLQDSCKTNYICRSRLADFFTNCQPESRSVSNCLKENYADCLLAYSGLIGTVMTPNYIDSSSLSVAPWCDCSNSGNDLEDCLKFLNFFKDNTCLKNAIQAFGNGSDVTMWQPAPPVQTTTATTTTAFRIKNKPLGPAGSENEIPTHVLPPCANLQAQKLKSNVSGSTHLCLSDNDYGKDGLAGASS
The test is described as follows: cell-based or functional assay.

Entries after “also recorded” stand apart in the source; their conditions may differ.

For heparin, the “GDNF-evoked [Ca^2+]i elevation in heparin injected neurons” value is “did not evoke an increase in [Ca^2+]i” in the test with Ret^−/− DRG neurons and “did not significantly respond to GDNF application” in the test on Ret^−/− DRG neurons (listed as Heparin). Also, the “[Ca^2+]i response of neurons loaded by pinocytosis with heparin” value in the test on Ret^−/− DRG neurons (heparin with Alexa dye, 100 nM GDNF or 10 μM ATP) is “did not respond either to 100 nM GDNF or to 10 μM ATP”.

Turning to “phosphatidylinositol-specific phospholipase C [PI-PLC]”, the “GDNF-evoked [Ca^2+]i elevation after pre-treatment” value in test [1] (pre-treatment 1U/ml PI-PLC, GDNF 100 ng/ml) is “eliminates GDNF-evoked [Ca^2+]i elevation; also recorded: None of the pre-treated neurons responded”; with Ret^−/− DRG neurons (pre-treatment PI-PLC 1 U/ml for 1 hr at 37° C.), “abolished the effect of GDNF; also recorded: did not affect [Ca^2+]i”.

Consider `COc1ccc2c(c1)CC[C@@H]1[C@@H]2CC[C@]2(C)[C@@H](NCCCCCCN3C(=O)C=CC3=O)CC[C@@H]12` [U-73122], for which the “GDNF-evoked [Ca^2+]i elevation after pre-treatment” value in [1] (pre-treatment with U-73122) is recorded as “resulted in abolishing of the effect of GDNF; also recorded: resulted in the abolishing of the effect of GDNF”. Moreover, in the test on GFRα2^−/− DRG neurons, the “GDNF-evoked release of Ca^2+ from internal stores after pre-treatment” value was “inhibited release of Ca^2+ from the internal stores”. For the same molecule, the “GDNF-evoked long-lasting [Ca^2+]i elevation / Ca^2+ release after pre-treatment” value in the test on Ret^−/− DRG neurons (pre-treatment U-73122 (10 μM)) is listed as “completely abolished; also recorded: inhibited release of Ca^2+ from the internal stores”.

With `C/C=C(/C)C(=O)O[C@H]1C(C)=C2[C@H]([C@@H]1OC(=O)CCCCCCC)[C@@](C)(OC(C)=O)C[C@H](OC(=O)CCC)[C@@]1(O)[C@H]2OC(=O)[C@@]1(C)O` [thapsigargin], the “change in [Ca^2+]i on application of thapsigargin” value in test [1] (5 μM, applied at the end of the experiments) was “profound elevation in [Ca^2+]i”. For the same molecule, the “GDNF-evoked [Ca^2+]i elevation after pre-treatment” value in [1] (pre-treatment 5 μM thapsigargin) is “abolished the effect of GDNF; also recorded: resulted in the abolishing of the effect of GDNF”. In the test on Ret^−/− DRG neurons (5 μM, end of experiments, PI-PLC pre-treated neurons), the “change in [Ca^2+]i on thapsigargin treatment” value is “[Ca^2+]i was transiently increased”.

Regarding “GFRα1-coupled Src-type kinase of SHEP cells, co-migrating with p62Yes (from UniProt P07947 2-543) (enzyme)”, the fold (pan-Src band in the anti-GFRα1 immunoprecipitate, relative to 0 min) in test [2] was 1.5 fold; in test [3] it was 1.2 fold; in [4], 1.5 fold; in [5], 1 fold.

B1: Glial cell line-derived neurotrophic factor (GDNF) (ligand, UniProt P39905 78-211, looked up, species assumed)
Glial cell line-derived neurotrophic factor: SPDKQMAVLPRRERNRQAAAANPENSRGKGRRGQRGKNRGCVLTAIHLNVTDLGLGYETKEELIFRYCSGSCDAAETTYDKILKNLSRNRRLVSDKVGQACCRPIAFDDDLSFLDDNLVYHILRKHSAKRCGCI
Take B1: in [6], the in vitro kinase activity co-precipitated with anti-GFRα1 antibodies from the Triton X-100 insoluble fraction of SHEP cells, fold relative to untreated cells; lane 0 min (reference lane) was found to be 1 fold; the in vitro kinase activity co-precipitated with anti-GFRα1 antibodies from the Triton X-100 insoluble fraction of SHEP cells, fold relative to untreated cells; lane 30 sec of 100 ng/ml GDNF amounted to 12 fold; the in vitro kinase activity co-precipitated with anti-GFRα1 antibodies from the Triton X-100 insoluble fraction of SHEP cells, fold relative to untreated cells; lane 1 min of 100 ng/ml GDNF turned out to be 10 fold; the in vitro kinase activity co-precipitated with anti-GFRα1 antibodies from the Triton X-100 insoluble fraction of SHEP cells, fold relative to untreated cells; lane 7 min of 100 ng/ml GDNF is 7 fold. Further, the Src-type kinase activity in co-precipitates with anti-GFRα1 antibodies from Triton X-100 insoluble fractions of SHEP cells in test [7] is 12 fold. In addition, in test [8], the [Ca^2+]i elevation in Ret^-/- DRG neurons (confocal microscopy, Calcium Green-1) (% of the neurons) was in the range of 60 to 70.

B2: Heat-inactivated GDNF: GDNF heat-inactivated at 98° C. for 15 min, used as specificity control (protein, UniProt P39905 78-211, looked up)
Glial cell line-derived …: B1 Glial cell line-derived neurotrophic factor
modifications: heat-inactivated
As to B2, the “change in [Ca^2+]i” value in test [1] was “did not evoke any changes of basal [Ca^2+]i”; in test [1] (heat-inactivated) it was “did not evoke changes in [Ca^2+]i”; in the test on Ret^−/− DRG neurons (prolonged application, heat-inactivated, 100 ng/ml), “did not respond with [Ca^2+]i elevations”.
